Tested on: K4 kissing-loop RNA reporter
Assay: apparent KD of K4 kissing-loop reporter; higher = weaker reporter binding
Conditions: Eterna round: R107
Description: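 RNA-MaP round R107: designed RNA switches with theophylline, tryptophan, arginine or FMN aptamers are transcribed on-chip within common flanks. They are titrated with a labelled K4 kissing-loop RNA reporter in RNA-MaP buffer (100 mM Tris pH 7.5, 80 mM KCl, 4 mM MgCl2), without ligand or with the indicated ligand. Median apparent KD per design.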

[1] = input ligand: theophylline 20 uM
[2] = input ligand: tryptophan 2.4 mM
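Also: bound reporter read as fluorescence of individual clusters on recovered sequencing chips by microscopy, with normalized cluster intensities fitted with a binding model.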

Row | Sequence | apparent KD of K4 kissing-loop reporter (input ligand: FMN 200 uM) | apparent KD of K4 kissing-loop reporter (input ligand: arginine 13.2 mM) | apparent KD of K4 kissing-loop reporter (input ligand: none) | apparent KD of K4 kissing-loop reporter [1] | apparent KD of K4 kissing-loop reporter [2]
1 | UGGCGGCAAGGGUUAUUGGAAAGUAUUCGUCGAGGACCGGUACGGCCGCCACUCGAACACCAGUGAUGUUGGUCUGGUUUAAGCU [Exclusion Tryptophan A GF 22] | 447 nM | 690 nM | 540 nM | 636 nM | 321 nM
2 | CCUAUCUCGUAGGAUACCAGACUAUGAUCUAUGAUCAAUGCCAUCACCGAGUGAUGUUCGGUCCCUUGGCAGCCUAUGAGAUGGG [#13 K4 Theophylline B Exclusion] | 166 nM | 147 nM | 159 nM | 221 nM | 154 nM
3 | GGUUUCUGAAGUGAUGUUUCAGGAUGACACAAGGAUAUAUAUGGCGAUAGAAGGUGUGCGUCGCAUGACGAACGACGUCAGCUUC [theeternabot_exclusion_KL_FMN_A_37] | 94.8 nM | 80.9 nM | 120 nM | 123 nM | 93 nM
4 | GCCGUACGCAUGGAUACCAGCAUUUAUGACACACUGCUAGUGAUGUUAGCUAUGCGUAUAUGCCCUUGGCAGCCAUGCGUACGGC | 150 nM | 128 nM | 140 nM | 87.4 nM | 133 nM
5 | UGACUGGACUGAAGGAGCGCUAAAACUCCUAGUGAUGUUGGGAAAUAGAGACAAAGUCUCAAGCAGGUAGGUCGCAGUCUAGUCU [ArgBS 23 #SwitchBubble #StaticStem] | 166 nM | 200 nM | 163 nM | 197 nM | 169 nM
6 | GGAUAUGUAACAGAUACCAGCCGACGACAGUCACUGUGUCAUGUAGUGAUGUUACAAUCUGGCCCUUGGCAGCUGUCUCUGGUUU [theeternabot_exclusion_KL_Theo_B_27] | 310 nM | 214 nM | 278 nM | 250 nM | 250 nM
7 | AAACAGCACUGGGAGUGAUGUUCUCAGUGACGAGGACCGGUACGGCCGCCACUCGCGAGAGAACUAGUCUAGACUUGACUGCAUA [Excl Tryptophan A V15] | 181 nM | 138 nM | 145 nM | 149 nM | 205 nM
8 | GGCCGGCCGGGAAGGAGCGGGAGUGAUGUUUUCGCAAAGAAAGAUAUAAAAGAAACGAAAUCCCAGGUAGGUCGCCCGGCCGGUU | 64.4 nM | 113 nM | 91.3 nM | 160 nM | 66.4 nM
9 | AUAAUAUUGCGAGGAUAUCCUUCCCACGUCGAAGUACCGUGCUUGAUGGAGUGAUGUUCGAUCAGAGGAGAAGGCGCGGUGUUGU [Same State FMN B GF23] | 734 nM | 543 nM | 656 nM | 611 nM | 571 nM
10 | UACCUAUUAUUAACACUAUAUACAACUGAAGGAGCGACAAUAAAGUCAGGUAGGUCGCAGAAUUAAUGAGUGAUGUUCAUUUUUA [JR_ExcArginiA_Sub014] | 84.3 nM | 136 nM | 95.3 nM | 110 nM | 59.7 nM
11 | UCCUAGGCUCGAAAGAGCCUAGGAUUGACUCAGGAUAUCCGGAAACGGAGAAGGGAGUCACUAGUGAUGUUAGGGAUUCCCUAUU | 312 nM | 91.2 nM | 100 nM | 85.9 nM | 94.2 nM
12 | GUUACGCAUGGAAGGAGCGCAGGCUCAACAAGUAGCUCAGUGAUGUUGAGCAUAUUAAUUCUGCAGGUAGGUCGCCAUGUGUAAC [Ex Arginine B K4 26] | 787 nM | 471 nM | 612 nM | 802 nM | 646 nM
13 | UUUAUAAAGUCGGCCGCCACUGGAUUUAUAUUUGUUUAGUCUGGAUCAAAGUGAUGUUUUGAGUCCAGGACCGGGACAUUUGUUA [whbob_Ex_Tryp_B_w36] | 92.1 nM | 85.9 nM | 93.5 nM | 91.9 nM | 172 nM
14 | GACUCAUGUAGAAGGAGCGUCAGAAGUUAUAGACAUGAGUGAUGUUCAUGUUAGCUGAUUUGACAGGUAGGUCGCUACAGCAGGA [KL-SSArg B16 #analogue] | 126 nM | 100 nM | 126 nM | 114 nM | 121 nM
15 | GGGAGAAGUGGUGUUGAUUAAGAAGCGGAAGGAGCGCCGAAGAAGGCAGGUAGGUCGCCGAAAUAUAGUGAUGUUAUAUAAAGGG [ExArg.B] | 155 nM | 184 nM | 137 nM | 218 nM | 152 nM
16 | UUCUGCAUCUCGGCCGCCACUCACUAGUGAUGUUAGUAAGGAGCGACUAGACAUGUCCCGUUAUUGAGGACCGGGAGAGGCUCUU [#13 K4 Tryptophan B Exclusion] | 208 nM | 162 nM | 192 nM | 162 nM | 140 nM
17 | UGACUGGAUGGAAGGAGCGCUAAACUCCUAGUGAUGUUAGGGAUAUGAGGCAAAGCCUUGAGGCAGGUAGGUCGCCAUCUAGUCU [FiskerMod 25 - Jieux - Same State - Arginine B] | 191 nM | 117 nM | 131 nM | 141 nM | 145 nM
18 | AAAACCAAAAGCGAUACCAGCGCGGAGUGAUGUUCCGAGGAUCGGAGUGAUGUUCCGAAGCGCCCUUGGCAGCGCAAAAGCGCAA [Exclusion Theophylline B GF 7] | 207 nM | 139 nM | 171 nM | 196 nM | 164 nM
19 | UUAGAGAUCUCAGGAUAUCAGUGAUGUUGGUAUCAAGAUCUGAGAUAGAAUUCUAUCUCAGAUCAAUGAGAAGGGAGAUCUCAUU [AK3.3 Exc FMN B] | 374 nM | 110 nM | 105 nM | 176 nM | 118 nM
20 | UAAGAAUAACAUGCAGUGAUGUUGCAUGUACGAGGACCGGUACGGCCGCCACUCGAGUCCUCGAACAUGCACCGAGGAAUAACAA [(H,1)-(H,2)-(Trp1)-(Trp2)-(T)'-(H)'-(T)''] | 201 nM | 118 nM | 116 nM | 161 nM | 402 nM
21 | CAACAUCACAACUUCUUCGUCCUAGAAGACUAGGAUAUCAGGAAACUGAGAAGGAGUCUCUGCAGUGAUGUUGCAGCUAGGACGA [[K]'-[F2]'-[F1]'-[F1]-[F2]-[K1]-[K2]-[F]''_Design2b] | 231 nM | 216 nM | 185 nM | 266 nM | 219 nM

Row | Sequence | apparent KD of K4 kissing-loop reporter (input ligand: FMN 200 uM) | apparent KD of K4 kissing-loop reporter (input ligand: arginine 13.2 mM) | apparent KD of K4 kissing-loop reporter (input ligand: none) | apparent KD of K4 kissing-loop reporter [1] | apparent KD of K4 kissing-loop reporter [2]
22 | AACUCUCAGACAUCUGAGUGAUGUUCAGGCCGAGGACCGGUACGGCCGCCACUCGGGUCUGAGAGAGGUUAUCAAAGAUAGCCAA [Omei KL Tryp A SS A v4] | 570 nM | 356 nM | 468 nM | 390 nM | 540 nM
23 | GAAAGAAAGAAUGAUACCAGACACCCGAGUGAUGUUCGGAGCAGAGUGAUGUUCUAAUAAGUCCCUUGGCAGCAUAAAAGAAAAG [Same State Theophylline B GF 1] | 240 nM | 256 nM | 322 nM | 331 nM | 246 nM
24 | UUACUACCCAGUGAUGUUGGGUAGCGGCCACGAGGACCGGUACGGCCGCCACUCGAGGUUCGGGAGUGAUGUUCCUACUAUUUGG [Same state Tryptophan A GF 6] | 328 nM | 341 nM | 360 nM | 402 nM | 160 nM
25 | CCGGGCGGCCGAAGGAGCGGGCGGACCCGAGUGAUGUUCGGGUGGCCCGUGAGGGCCGGUGCCCAGGUAGGUCGCGGAUCCGCCC [#2 Same State - Arginine B Attempt #3 (HarryS)] | 155 nM | 120 nM | 140 nM | 116 nM | 135 nM
26 | AUUUUGGUUUAGAGUGAUGUUCCUUGUAUUCGAGGACCGGUACGGCCGCCACUCGAAUAGAAAAGAAAAGAAAUGUGUGAUGUUU [BDazzled - #5 SS Tryptophan A] | 772 nM | 611 nM | 900 nM | 764 nM | 567 nM
27 | GGCACUUUUGGUAGACACCAUCUACCUCUAUAGGAUAUGCCGAAAGGCAGAAGGAUAGACCUACAGAGUGAUGUUCUGCGUGCCU | 686 nM | 801 nM | 1230 nM | 946 nM | 849 nM
28 | UGAUACCAGACGGCCGCCACUCCUGCAGUCAAAGACUGCUAAAGGAAAUUCGUCCAGUGAUGUUGGAGGACCGGGUCUGGUAUCU [TrypBX 13 #SwitchBubble #Palindromic #StaticStem] | 1100 nM | 753 nM | 1070 nM | 810 nM | 480 nM
29 | ACCCGGGCCCGAAAGGGCCCGGGAAGAGAUACCAGCAGCGAAAGCUGCCCUUGGCAGCUCACUUAGUGAUGUUGAGUAUAGGGUA [#22 K4 Theophylline A Same State] | 1100 nM | 463 nM | 279 nM | 185 nM | 361 nM
30 | AUUAUAUAAUGGAGUGAUGUUCCAUCAGAUACCAGUGAAUUUGAACACCCUUGGCAGCUGUUGUUCAAAUAAUUUAAAUCCUUUA [JR_SSTheophyA_Sub019] | 129 nM | 150 nM | 132 nM | 166 nM | 103 nM
31 | UAAUGCAUGACGGCCGCCACUAGUACUGGAGUGAUGUUGUGGUACGGCGGCAGUAUAGGGUGGACUAGGACCGGGUCAUGCAUAU [KL-XTryp-B11 #analogue] | 598 nM | 443 nM | 597 nM | 547 nM | 567 nM
32 | AUAGAAAAGUGGCACCCUCACUAAAACAGUCGAGGACCGGUACGGCCGCCACUCGCGCGCUUUAGUGAUGUUAAAGCUAGGCGGA | 269 nM | 228 nM | 265 nM | 259 nM | 245 nM
33 | GGGCCUAUUGAUGCUGGAGCAAUUCUGGAAGGAGCGCUCAAAGGAGCAGGUAGGUCGCCAGUAUGCAAGGGCAGUGAUGUUGCCC [Ersoarxe] | 238 nM | 164 nM | 233 nM | 145 nM | 189 nM
34 | GGUAGGGCAGCUGCGGAAACGCAGCAUAUCGAGGAUAUCGGGAAACCGAGAAGGCGAGUAGUGAUGUUACUGGUUUAGCCCUACC | 444 nM | 167 nM | 191 nM | 196 nM | 173 nM
35 | AUUUUCAUUUUAUUAUAUAACUUUUCAGAAGGAGCGUGGAAGUUCACAGGUAGGUCGCUGAAUAUUGGACUAGUGAUGUUAGUUA [JR_Nu_SSArginiA_Sub022] | 202 nM | 244 nM | 230 nM | 259 nM | 207 nM
36 | AUUUGUUACCUUAUAGGAGUGAUGUUCUUGCGAGGACCGGUACGGCCGCCACUCGCGCUGGCGCCUAGCCUCGGACCGUUAAUUC [theeternabot_exclusion_KL_Trp_A_25] | 582 nM | 325 nM | 635 nM | 497 nM | 431 nM
37 | AACUGUUGGGAAGGAUAUUAUGGUGGCUAAAUCCAGUGAUGUUGGAAAUCGGUACUCGCCCACCUUUAAGAAGGUCCGUGAAAGA [theeternabot_sameState_KL_FMN_B_6] | 152 nM | 164 nM | 151 nM | 199 nM | 130 nM
38 | GCAGUGAUGUUGCUGAUGUACAGUGGGAUACGAGGACCGGUACGGCCGCCACUCGUACAGAAUUUGUUAAUACAUCGAUAAGUGA [XV] | 377 nM | 360 nM | 526 nM | 436 nM | 522 nM
39 | AAAAUAAAUAGCAGUCACGGAGUGAUGUUCCGAGGACCGGUACGGCCGCCACUCGACCAUCAUAAGAUGGAAUGGCGAGACUGCA [#SwitchBubble 21 #K4Early] | 134 nM | 135 nM | 137 nM | 138 nM | 354 nM
40 | AAAUUCUUUUUUUUAUAUAACGAUUCAGAAGGAGCGAGGUAGAACUCAGGUAGGUCGCUGAAUAUAAGACUAGUGAUGUUAGUAA [#01 K4 Arginine A Same State] | 175 nM | 193 nM | 224 nM | 238 nM | 156 nM
41 | GGAUAGGACAGAGGAUAUGGUAGUGAUGUUACCAAACUGGUUAUUAAUGUCAGAAAACUGGCAAAUCCAGAAGGCUGUCCUAUCG [KL-XFMN-B13] | 180 nM | 63.8 nM | 75.7 nM | 60.5 nM | 62.9 nM
42 | AGAGAGGUGUUUUUUUGAAGUGAGUAAUGGCGAGGACCGGUACGGCCGCCACUCGGGUGAUGUUAGUGAUGUUGAUGUAGUGAUG [yrymullin] | 79.3 nM | 60.8 nM | 66.3 nM | 114 nM | 65.6 nM
